For one substance, binding relative to SYD-2LH1 (percent) results are on record in paper PMC3500560.

This experiment concerns the target His6-tagged SYD-2LH1 (C. elegans) (UniProt Q21049). Briefly: pull-down.

Chain of His6-tagged SYD-2LH1 (C. elegans) (Q21049 91-217): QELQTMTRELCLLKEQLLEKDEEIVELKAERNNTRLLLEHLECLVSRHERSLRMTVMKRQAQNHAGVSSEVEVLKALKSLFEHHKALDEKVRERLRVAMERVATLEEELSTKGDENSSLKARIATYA

Consider “GST-LH1Δ (Δ179–198) (from UniProt Q21049 1-1139) (domain or fragment)”, for which the binding relative to SYD-2LH1 (percent) was below 10%.
